# According to patent US10000771B2, “Nuclear targeting sequences” (Yeda Research and Development Co. Ltd., priority 2007, dated 2018):
# Tests used:
# [1] = tested on: COS7 cells; assay: Subcellular fractionation of GFP-ERK2 constructs; assay type: cell-based; conditions: 48 hr after transfection, serum-starved
# Protocol: FIG. 6 is an autoradiograph illustrating the subcellular fractionation of WT-GFP-ERK2 (WT), APA-GFP-ERK2 (APA), or EPE-GFP-ERK2 (EPE). COS7 cells were grown in 10 cm plates and transfected with the above ERK2 constructs. Twenty-four hr after transfection the cells were serum-starved for 16 hr and subjected to cellular fractionation as described under materials and Methods. Western blot analysis of aliquots of the fractions were stained with anti GFP Ab to detect the ERK2 and its mutant, and with anti tubulin and anti c-Jun Abs as markers for the cytoplasmic and nuclear fractions respectively.
# Cellular Fractionation: Transfected COS7 cells were starved (0.1% FBS) for 16 h, after which they were washed with ice-cold PBS, suspended in ice-cold buffer H, and centrifuged (12,000×g, 5 min). Then, the nuclear and cytosolic fractions were isolated as described [H. Rubinfeld, T. Hanoch, R. Seger, J. Biol. Chem. 274, 30349 (1999)]. Briefly, the pellets were suspended in 0.1% NP-40 followed by centrifugation (12,000×g, 5 min). The supernatant, containing the cytosolic fraction, was boiled in sample buffer. The pellet was suspended in extraction buffer (420 mM Nacl, 50 mM β-glycerophosphate, 0.5 mM Na3VO4, 1.5 mM MgCl2, 0.2 mM EDTA, 1 mM DTT, 25% glycerol), incubate on ice for 10 min, sonicated (50 W, 2×7 sec), and centrifuged (12,000×g, 5 min). […]
# [2] = tested on: CHO cells; assay: Fluorescence microscopy of ERK2 constructs (subcellular localization); assay type: cell-based
# Protocol: FIGS. 1A-1R are photomicrographs illustrating the role of SPS in the non-regulated accumulation of ERK2 in the nucleus. CHO (FIGS. 1A-F and 1M-R) or COS7 cells (FIGS. 1G-L) were grown on cover slips and transfected with WT-ERK2, or the mutants 244-6A and Δ244-6. Twenty-four hr following transfection, the cells were serum-starved (16 hr), fixed, stained with DAPI and visualized using a fluorescent microscope.
# FIGS. 2A-2X are photomicrographs illustrating the role of SPS in the stimulated nuclear translocation of ERK2. CHO cells were grown on cover slips and co-transfected with HA-MEK1 together with either WT-ERK2, 244-6A, or Δ244-6. Twenty-four hr after transfection, the cells were serum starved for 16 hours, treated with TPA (250 nM, 15 min), except in WT-10 where the cells were treated with 10 nM TPA for 15 min. After treatments the cells were fixed and stained with either anti-HA Ab or DAPI.
# FIGS. 5A-5F are photomicrographs illustrating that mutating the Ser residues in the SPS to Glu induces the nuclear accumulation of ERK2. CHO cells were grown on cover slips and transfected with WT-GFP-ERK2 (WT), APA-GFP-ERK2 (APA), or EPE-GFP-ERK2 (EPE). Twenty-four hr after transfection, the cells were serum-starved, fixed, stained with DAPI and visualized by a fluorescent microscope.
# FIGS. 7A-7H are photomicrographs illustrating that EPE-ERKs translocates to the nucleus faster than WT-ERK. CHO cells were transfected with WT-GFP-ERK2 (WT) and EPE-GFP-ERK2 (EPE). Eight (FIGS. 7A-D) or twelve (FIGS. 7E-H) hours after transfection the cells were fixed, stained with DAPI and visualized by a fluorescent microscope.
# Immunofluorescence Microscopy. Cells were fixed (30 min in 3% paraformaldehyde in PBS or 10 min with ice-cold methanol), followed by 5-min permeabilization with 0.2% Triton X-100 in PBS (23° C.). The fixed cells were sequentially incubated with the appropriate Abs (45 min) followed by rhodamine-conjugated secondary Abs (45 min) and DAPI. Slides were visualized using a fluorescence microscope (Nikon, Japan) at 400× magnifications. […]
# [3] = molecular target: T1, importin-7 (Homo sapiens, UniProt O95373); assay: Coimmunoprecipitation with importin-7; assay type: binding; conditions: HeLa cells, coimmunoprecipitation with anti GFP Ab, with or without stimulation
# T1 construct: endogenous in cells; host or cells: HeLa
# Protocol: (§1) FIGS. 19A-19C are autoradiographs illustrating that phospho-SPS interacts with importin-7 and releases Nup153c binding without involvment of importin-β. […]. Interaction of ERK2 with Importin-7 is enhanced by EGF stimulation and EPE mutation. HeLa cells overexpressing WT-ERK (WT), ERK-APA (APA), ERK-EPE (EPE) or GFP were serum starved and treated with EGF (50 ng/ml, 10 min). The extracts of the treated cells were then subjected to coimmunoprecipitation using A/G beads pre-conjugated with anti GFP Ab and mild washes. The coimmunoprecipitated importin-7 (first panel) and importin-β (third panel), as well as their loading amounts (panels 2 and 4 respectively) were determined by WB using anti importin-7 (αImp7) and importin-β (αImpβ) Abs. The equal amount of immunoprecipitated ERKs was determined with anti GFP (αGFP; IP) Ab. FIG. 19B. Interaction of 2GFP-SPS and its mutants with importin-7. HeLa cells overexpressing 2GFP, 2GFP-SPS, 2GFP-APA and 2GFP-EPE constructs were subjected to coimmunoprecipitation as described in FIG. 19A (without EGF stimulation). FIG. 19C. Interaction of NUP153 with WTERK2 and its APA and EPE mutants. NUP153c is elevated in APA-ERK2, but reduced in EPE-ERK2. Immunoprecipitated and stringently washed WT-ERK2 (WT), APA-ERK2 (APA) or ERK2 from […] cells pre-treated with or without TPA (250 nM, 15 min) were incubated with 0.5 μg recombinant His-Nup153c. […]
# [4] = tested on: Nup153c; assay: Interaction with recombinant His-Nup153c; assay type: binding; conditions: immunoprecipitated ERK2 incubated with 0.5 μg recombinant His-Nup153c
# Protocol: as §1
# [5] = tested on: COS7 cells; assay: Proliferation assay of COS7 cells overexpressing ERK2 constructs; assay type: cell-based; conditions: 72 hours after transfection
# Protocol: FIG. 16 is a bar graph illustrating that the prevention of SPS phosphorylation inhibits proliferation. COS7 cells overexpressing WT-ERK2, 244-6A-ERK2, ▴244-6-ERK2, APA-ERK2 or EPE-ERK2 were subjected to proliferation assay 72 hours after transfection. The bar graph represent the mean+/−SD (n=3), Student t test was used for statistical analysis (*, p<0.01).
# T1 sequence (O95373 whole entry): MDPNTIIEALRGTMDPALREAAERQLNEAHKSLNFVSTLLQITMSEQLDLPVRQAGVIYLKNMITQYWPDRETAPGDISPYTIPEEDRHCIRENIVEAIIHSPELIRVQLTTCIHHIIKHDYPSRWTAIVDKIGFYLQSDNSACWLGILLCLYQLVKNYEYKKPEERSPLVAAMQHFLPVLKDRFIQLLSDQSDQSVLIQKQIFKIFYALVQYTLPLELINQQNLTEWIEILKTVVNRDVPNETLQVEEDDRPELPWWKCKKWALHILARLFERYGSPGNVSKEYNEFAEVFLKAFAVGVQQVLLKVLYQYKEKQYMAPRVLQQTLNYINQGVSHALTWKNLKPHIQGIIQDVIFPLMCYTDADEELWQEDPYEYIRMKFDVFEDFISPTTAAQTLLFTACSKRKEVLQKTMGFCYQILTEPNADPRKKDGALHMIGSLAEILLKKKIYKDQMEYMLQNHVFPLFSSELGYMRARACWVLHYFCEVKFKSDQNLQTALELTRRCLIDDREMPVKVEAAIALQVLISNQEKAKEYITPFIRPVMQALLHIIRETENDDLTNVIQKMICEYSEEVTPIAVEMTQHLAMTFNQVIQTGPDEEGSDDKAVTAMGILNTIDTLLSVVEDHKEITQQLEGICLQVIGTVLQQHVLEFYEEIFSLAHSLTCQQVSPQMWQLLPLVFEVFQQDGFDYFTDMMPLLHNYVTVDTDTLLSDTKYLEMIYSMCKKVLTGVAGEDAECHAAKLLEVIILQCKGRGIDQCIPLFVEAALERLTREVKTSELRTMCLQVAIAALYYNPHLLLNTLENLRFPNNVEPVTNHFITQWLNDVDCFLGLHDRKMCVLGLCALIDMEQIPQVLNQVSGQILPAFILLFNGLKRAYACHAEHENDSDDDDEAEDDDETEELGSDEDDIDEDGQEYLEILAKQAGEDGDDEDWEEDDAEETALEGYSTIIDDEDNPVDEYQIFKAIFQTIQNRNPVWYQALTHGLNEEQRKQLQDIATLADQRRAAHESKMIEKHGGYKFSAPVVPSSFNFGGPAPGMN
molecule,measurement,setting,value
"EPE-ERK2: GFP-ERK2 with the two Ser residues of the SPS domain replaced with Glu (phosphomimetic) (protein, left off: large carriers) MAAAAAAGPEMVRGQVFDVGPRYTNLSYIGEGAYGMVCSAYDNLNKVRVAIKKISPFEHQTYCQRTLREIKILLRFRHENIIGINDIIRAPTIEQMKDVYIVQDLMETDLYKLLKTQHLSNDHICYFLYQILRGLKYIHSANVLHRDLKPSNLLLNTTCDLKICDFGLARVADPDHDHTGFLTEYVATRWYRAPEIMLNSKGYTKSIDIWSVGCILAEMLSNRPIFPGKHYLDQLNHILGILGEPEQEDLNCIINLKARNYLLSLPHKNKVPWNRLFPNADSKALDLLDKMLTFNPHKRIEVEQALAHPYLEQYYDPSDEPIAEAPFKFDMELDDLPKEKLKELIFEETARFQPGYRS",localized in the nucleus,[1],~95%
same,speed of translocation into the nucleus,"[2]; CHO cells, shortly (8 or 12 hours) after transfection",faster than WT-ERK2
same,subcellular localization in quiescent cells,"[2]; overexpressed in CHO (and COS7) cells, serum-starved, fluorescent microscope",pronounced nuclear localization
same,interaction of ERK2 constructs with importin-7,[3],dramatically increased the interaction
same,interaction with Nup153,[4],reduced
same,serum-induced cell proliferation,[5],slightly enhanced
